This note sets out measurements from patent US20240199762A1 (PHILOGEN S P A, published 2024).

A word on the Kd: it is the equilibrium constant for the complex coming apart.

Experiment [1] deals with T1, human FAP-ECD (extracellular domain) recombinant fragment containing a C-terminal His6 tag (human, UniProt Q12884 26-760, randomly biotinylated with NHS ester-activated biotin (as used on the SA chip and Streptawell plates)).
T1 construct: also called biotinylated human FAP-ECD; biotinylated human FAP
T1 sequence: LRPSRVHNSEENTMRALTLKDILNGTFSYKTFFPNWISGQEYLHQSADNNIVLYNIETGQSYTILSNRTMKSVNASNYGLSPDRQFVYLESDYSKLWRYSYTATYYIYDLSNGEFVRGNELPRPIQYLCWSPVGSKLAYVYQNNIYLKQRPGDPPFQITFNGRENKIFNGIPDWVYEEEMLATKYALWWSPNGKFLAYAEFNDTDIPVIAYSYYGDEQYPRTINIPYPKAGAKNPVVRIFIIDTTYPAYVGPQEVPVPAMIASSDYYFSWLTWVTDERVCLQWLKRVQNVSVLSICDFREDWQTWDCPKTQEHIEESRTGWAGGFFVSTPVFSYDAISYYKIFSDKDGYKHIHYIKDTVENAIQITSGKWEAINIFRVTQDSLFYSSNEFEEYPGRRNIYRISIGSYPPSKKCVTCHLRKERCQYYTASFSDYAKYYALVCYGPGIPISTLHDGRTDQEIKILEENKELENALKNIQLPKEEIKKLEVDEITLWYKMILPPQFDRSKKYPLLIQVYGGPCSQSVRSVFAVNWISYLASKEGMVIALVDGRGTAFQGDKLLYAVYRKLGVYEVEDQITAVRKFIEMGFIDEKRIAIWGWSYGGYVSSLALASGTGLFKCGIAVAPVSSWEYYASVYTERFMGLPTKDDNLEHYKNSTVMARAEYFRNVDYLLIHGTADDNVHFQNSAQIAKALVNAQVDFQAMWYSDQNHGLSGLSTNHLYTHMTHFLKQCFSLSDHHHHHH
As to the kind of experiment: SPR, BIAcore X100, biotinylated human FAP-ECD on SA chip (1500 RU), monomeric scFv injected. How it is done: Affinity measurements of the C5 and 7NP2 scFv antibodies were performed by Surface Plasmon Resonance using BIAcore X100 instrument with a biotinylated human FAP-ECD coated SA chip. A final coating of 1500 RU was achieved.
Samples were injected at a concentration of […], 450 nM and 225 nM for the C5 scFv and of 1350 nM, 675 nM, 338 nM and 170 nM for the 7NP2 scFv. No regeneration of the SA chip was performed between each run, scFvs were left to detach from the antigen. KD measurements were assessed using the BIAevaluation 3.2 software.
Background: SPR reads the build-up and loss of mass on a sensor chip optically.

The target in experiment [2] is T2, human FAP expressed on transduced cells (SKRC52-hFAP, HT-1080-hFAP) (human, UniProt Q12884 1-760).
T2 construct: whole, on cells; Also the target in SKRC52-hFAP tumor cryosections and in tumors of tumor-bearing mice; also called cell-expressed human FAP
T2 sequence (looked up): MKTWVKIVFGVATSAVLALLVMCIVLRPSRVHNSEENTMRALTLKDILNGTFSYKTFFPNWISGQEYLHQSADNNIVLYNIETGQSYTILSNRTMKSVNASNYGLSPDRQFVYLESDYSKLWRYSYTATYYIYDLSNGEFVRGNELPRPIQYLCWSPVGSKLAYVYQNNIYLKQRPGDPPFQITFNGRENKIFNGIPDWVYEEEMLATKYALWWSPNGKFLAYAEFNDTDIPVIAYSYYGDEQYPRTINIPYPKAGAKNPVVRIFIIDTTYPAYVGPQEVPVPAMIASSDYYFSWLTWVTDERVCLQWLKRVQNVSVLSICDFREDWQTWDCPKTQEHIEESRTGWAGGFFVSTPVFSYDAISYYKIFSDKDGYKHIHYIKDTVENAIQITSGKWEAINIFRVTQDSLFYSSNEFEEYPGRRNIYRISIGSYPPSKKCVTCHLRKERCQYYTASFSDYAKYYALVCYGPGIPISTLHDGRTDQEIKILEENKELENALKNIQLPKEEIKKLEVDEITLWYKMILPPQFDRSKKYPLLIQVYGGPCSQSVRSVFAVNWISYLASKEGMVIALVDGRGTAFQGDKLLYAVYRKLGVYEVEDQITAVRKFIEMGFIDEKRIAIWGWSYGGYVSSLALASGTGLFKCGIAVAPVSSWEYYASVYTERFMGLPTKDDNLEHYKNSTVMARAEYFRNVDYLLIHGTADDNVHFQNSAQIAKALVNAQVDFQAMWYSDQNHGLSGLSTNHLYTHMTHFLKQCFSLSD
Kind of experiment: flow cytometry on HT-1080-hFAP and SKRC52-hFAP cells against wild-type cells. How it is done:
The cell lines used were the human renal cell carcinoma cell line SKRC52 and the human fibrosarcoma cell line HT-1080.
Specifically, SKRC52-hFAP, SKRC52 wild-type (wt), HT-1080-hFAP and HT-1080 wt cells were detached from cell culture plates using Accutase, counted and suspended to a final concentration of 1×10⁶ cells/mL in FACS buffer (0.5% BSA, 2 mM EDTA in PBS). Cells were incubated with the 7NP2 or KSF antibodies in SIP format and binding detected using an […] (25 μg/ml), followed by staining with the anti-rat AlexaFluor488 antibody. Cells were analyzed on a CytoFLEX cytometer (Beckman Coulter). The raw data were processed using the FlowJo 10.4 software.
In general terms: Flow cytometry measures light scatter and fluorescence of single cells or particles in a stream.

B1: affinity-matured anti-FAP antibody 7NP2 in scFv format (scFv)
scFv: EVQLLESGGGLVQPGGSLRLSCAASGFTFSSYAMSWVRQAPGKGLEWVSAIGSVGGPTYYADSVKGRFTISRDNSKNTLYLQMNSLRAEDTAVYYCAKRLAWFDYWGQGTLVTVSSGGGGSGGGGSGGGGEIVLTQSPGTLSLSPGERATLSCRASQSVSSSYLAWYQQKPGQAPRLLIYGASSRATGIPDRFSGSGSGTDFTLTISRLEPEDFAVYYCQQSGKGPLTFGQGTKVEIK
notes: The monomeric scFv was used in BIAcore; also called 7NP2 scFv; scFv(7NP2)
For the molecule B1, the Kd in experiment [1] turned out to be 10 nM.

B2: anti-FAP antibody 7NP2 in SIP (small immunoprotein) format (other)
chain: EVQLLESGGGLVQPGGSLRLSCAASGFTFSSYAMSWVRQAPGKGLEWVSAIGSVGGPTYYADSVKGRFTISRDNSKNTLYLQMNSLRAEDTAVYYCAKRLAWFDYWGQGTLVTVSSGGGGSGGGGSGGGGEIVLTQSPGTLSLSPGERATLSCRASQSVSSSYLAWYQQKPGQAPRLLIYGASSRATGIPDRFSGSGSGTDFTLTISRLEPEDFAVYYCQQSGKGPLTFGQGTKVEIKSGGSGGPRAAPEVYAFATPEWPGSRDKRTLACLIQNFMPEDISVQWLHNEVQLPDARHSTTQPRKTKGSGFFVFSRLEVTRAEWEQKDEFICRAVHEAASPSQTVQRAVSVNPESSRRGGC
notes: Homodimeric mini-immunoglobulin: 77 kDa under non-reducing and 38 kDa under reducing conditions; also called 7NP2 SIP; 7NP2(SIP)
In the case of B2, the binding result in experiment [2] is on record as “binds”.
